Values quoted from earlier work as cited in PMC7042059.

Molecular target: Pyruvate kinase M2 (Homo sapiens) (UniProt P14618)
Conditions: cited from earlier work

Chain of Pyruvate kinase M2 (P14618 2-531): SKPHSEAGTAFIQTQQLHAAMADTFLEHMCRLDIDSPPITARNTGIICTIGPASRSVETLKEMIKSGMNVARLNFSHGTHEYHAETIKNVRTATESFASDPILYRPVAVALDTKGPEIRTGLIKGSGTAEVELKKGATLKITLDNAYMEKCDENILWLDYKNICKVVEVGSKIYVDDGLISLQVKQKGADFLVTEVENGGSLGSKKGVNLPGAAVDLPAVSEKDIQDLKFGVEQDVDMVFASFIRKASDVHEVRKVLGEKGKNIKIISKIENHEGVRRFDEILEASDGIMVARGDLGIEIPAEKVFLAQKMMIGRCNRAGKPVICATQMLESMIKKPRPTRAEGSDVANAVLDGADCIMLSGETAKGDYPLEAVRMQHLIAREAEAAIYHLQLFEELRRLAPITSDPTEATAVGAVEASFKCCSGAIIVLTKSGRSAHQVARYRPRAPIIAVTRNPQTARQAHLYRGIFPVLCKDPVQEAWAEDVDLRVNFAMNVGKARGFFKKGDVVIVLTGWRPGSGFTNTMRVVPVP

Substance: Pyruvate kinase M2 (from UniProt P14618)
- Kd: 1000 nM
